B1: HA-tagged zDHHC5 [murine] / human PLM expressed in HEK-derived FT-293 cells [human] (parent)
chain 1: MPAESGKRFKPSKYVPVSAAAIFLVGATTLFFAFTCPGLSLNVSPAVPIYNAIMFLFVLANFSMATFMDPGIFPRAEEDEDKEDDFRAPLYKTVEIKGIQVRMKWCATCRFYRPPRCSHCSVCDNCVEEFDHHCPWVNNCIGRRNYRYFFLFLLSLTAHIMGVFGFGLLYVLYHIEELSGVRTAVTMAVMCVAGLFFIPVAGLTGFHVVLVARGRTTNEQVTGKFRGGVNPFTNGCCNNVSRVLCSSPAPRYLGRPKKEKTIVIRPPFLRPEVSDGQITVKIMDNGIQGELRRTKSKGSLEITESQSADAEPPPPPKPDLSRYTGLRTHLSLATNEDSSLLGKDSPPTPTMYKYRPGYSSSSTSAAMPHSSSAKLSRGDSLKEPTSIADSSRHPSYRSEPSLEPESFRSPTFGKSFHFDPLSSGSRSSSLKSAQGTGFELGQLQSIRSEGTTSTSYKSLANQTRNGSLSYDSLLTPSDSPDFESVQAGPEPDPPLGYTSPFLSARLAQQREAERHPRLLPTGPPHREPSPVRYDNLSRHIVASLQEREKLLRQSPPLAGREEEPGLGDSGIQSTPGSGHAPRTSSSSDDSKRSPLSKTPLGRPAVPRFGKPDGLRSRGLGSPEPGTTAPYLGRSISYSSQKAPSGVSETEEVALQPLLTPKDEVQLKTTYSKSNGQPKSIGSASPGPGQPPLSSPTRGGVKKVSGVGGTTYEISV
chain 2: ESPKEHDPFTYDYQSLQIGGLVIAGILFILGILIVLSRRCRCKFNQQQRTGEPDEEEGTFRSSIRRLSTRRR

Variants of: B1
Experiment: co-immunoprecipitation (HA IP, Western blot quantified)
Details: with human PLM expressed in HEK-derived FT-293 cells [human]; n = 3; read off a plot

Variant | response
chain 1 C236A C237A | 0.79 PLM/HA

Source: publication PMC7395175
